# Where two headings read alike, the source gives them in different places.
# B1: GOX: Glyphosate oxidoreductase producing AMPA and glyoxylate from glyphosate, SEQ ID NO:3 (protein)
# chain: MSENHKKVGIAGAGIVGVCTALMLQRRGFKVTLIDPNPPGEGASFGNAGCFNGSSVVPMSMPGNLTSVPKWLLDPMGRCQSGSAISNHHAWLIRFLLAGRPNKVKEQAKALRNLIKSTVPLIKSLAEEADASHLIRHEGHLTVYRGEADFAKDRGGWELRRLNGVRTQILSADALRDFDPNLSHAFTKGILIEENGHTINPQGLVTLLFRRFIANGGEFVSARVIGFETEGRALKGITTTNGVLAVDAAVVAAGAHSKSLANSLGDDIPLDTERGYHIVIANPEAAPRIPTTDASGKFIATPMEMGLRVAGTVEFAGLTAAPNWKRAHVLYTHARKLLPALAPASSEERYSKWMGFRPSIPDSLPVIGRATRTPDVIYAFGHGHLGMTGAPMTATLVSELLAGEKTSIDISPFAPNRFGIGKSKQTGPAS
# modifications: Pseudomonas sp. LBAA
# B2: GloxA: 473 amino acid glyphosate-degrading putative oxidoreductase from Arthrobacter sp. TBD, SEQ ID NO:1 (protein)
# chain: VKTTVFERNVPQTAVVSHALAGAAHRPYWIDHLQDSATRYPQLDGDAAADLVIVGGGYTGLWTALRAKERDPGRTVILLEGEQVAWAASGRNGGFCEASLTHGHENGKNRWPDELETLDRLGMENLDRMQEAVEKYAMDCEWERTGELNVAVEPHQVAWLQEDDTPGSVFLDQDAVRAEVNSPTYLAGRWHKDSVAMVHPYKLGLELARVATELGVVIYEGTRVRELNDHEHGVTVVTERGIVEAGHVVLGTNVFPSLLKRNQLMTVPVYDYALMTEPLTAEQLESIGWGKRQGIGDVANQFHYYRITKDHRILFGGYDALYFWGRRVDQKHEHQPATWEKIASHFFTTFPQLEGLKFTHKWAGPIDSSTQFCAFFGTARKGRVAYAAGFTGLGVGATAFAADVLLDLLAGLDTERTRLEMVRKRPLPFPPEPLASLGINLTRWSMDRADHNQGKRNIILKALDAVGLGFDS
# modifications: Arthrobacter sp. TBD
# Legend:
# [1] = tested on: GloxA; assay: Substrate range of partially purified recombinant GloxA; format: biochemical, Arthrobacter sp. TBD; details: for Removal of substrate, Specific Activity: partially purified recombinant GloxA; for Removal of substrate, Relative Activity: relative to glyphosate = 100
# Protocol: (§1) Crude enzyme extracts from E. coli cells were prepared as follows. Cells were harvested and the cell pellets resuspended in 1 mL lysis buffer (25 mM Tris-Cl pH 7.5 with 1 mgml^−1 lysosyme) and lysed by sonication on ice (Branson sonifier, 60% duty cycle, 30 seconds on, 30 seconds off for ten repeats). The soluble fraction was collected by centrifugation at 5000 g for 5 minutes and the protein content measured using Biorad protein dye-binding assay (BIORAD). Partially purified extracts were prepared by purification of the S-tagged or HIS-tagged GloxA protein from soluble CFE using S-protein agarose (Novagen) the Talon HIS-tag Purification System (BD Biosciences), according to manufacturer's instructions. Partially pure GloxA was eluted from the column using either 3M MgCl2 or 2.5 mM imidazole in the loading buffer. Enzyme reactions were prepared containing 500 μL crude enzyme extract or 250 μL partially purified enzyme extract (˜10 μg protein lysate) in 25 mM Tris-Cl pH7.5, 1 mM FAD, 0.1 mM MgCl2. After preincubation at 37° C. for 2 minutes, 1 mM glyphosate was added to the reaction, which was then incubated with shaking for a further 10-60 minutes. After the required reaction time, reactions were derivatized with tosyl chloride and analysed by HPLC as described above. All enzyme assays were performed in triplicate and repeated at least twice to confirm data. For determination of apparent kinetic parameters, substrate concentrations were varied over a suitable range, and the data fitted to a sum of exponential equations using Kaleidagraph (Synergy Software) or Hyper 1.1 (J. S. Easterby).
# [2] = herbicide glyphosate; Siehl et al. (2005), WO 92/00377; cited from earlier work
# [3] = wildtype GOX, U.S. Pat. No. 5,776,760; cited from earlier work
# [4] = tested on: A. thaliana var. Landsberg; assay: Glyphosate tolerance of Arabidopsis plants expressing GloxA (Tolerance Score); format: in vivo, Arabidopsis thaliana; details: five times the normal dose (12.5 kga.i.ha^−1), Day 8 post-application of herbicide
# Excerpt: FIG. 5. […] To obtain the Tolerance Score, plants were visually assessed for leaf health, plant radius and flowering on Day 8 post-application of herbicide. Untreated controls in perfect health scored 7-8 under the same system.
# T1 seedlings can be transplanted and cultivated for seed through two generations to eventually isolate the homozygous T3 seeds. T2 and T3 plants were then screened for increased resistance to glyphosate, essentially using the methods described by Jander et al. (2003), but with A. thaliana var. Landsberg, not Columbia, and using treatment doses ranging from 2.5-25 kg a.i. ha^−1. The scores given in FIG. 5 are for a dose of 5× the expected I100 dose (12.5 kga.i.ha^−1)
# [5] = Apparent kinetic parameters of GloxA, glufosinate as substrate; format: biochemical; details: herbicide glufosinate
# Protocol: as §1, with “After preincubation at 37° C. for 2 minutes, 1 mM glyphosate was added to the reaction, which was then incubated with shaking for a further 10-60 minutes.” left out, “For determination of apparent kinetic parameters, substrate concentrations were varied over a suitable range, and the data fitted to a sum of exponential equations using Kaleidagraph (Synergy Software) or Hyper 1.1 (J. S. Easterby).” left out
# [6] = Glyphosate degradation by GloxA-like homologous proteins, soluble cell-free extracts; format: biochemical; details: soluble cell-free protein extracts
# Excerpt: Selected putative GloxA-like homologous proteins were then expressed and assayed for glyphosate degradative activity. The nucleotide coding sequences of selected putative homologues were commercially synthesised (Geneart, GmBH), cloned and expressed using the Champion pET200D/TOPO. Expression System (Invitrogen), according to manufacturer's instructions. Recombinant protein expression was verified and quantitated by Coomasie-stained SDS-PAGE analysis and spot-densitometry using AlphaImager 2200 visualization and documentation system (Alpha Innotech).
# Enzymatic assays to assess glyphsate degradation were, performed using soluble cell-free protein extracts (partially purified protein) in a 1 ml volume containing 100 μg total cell-free protein (˜10 μg enzyme extract), 1 mM MgCl2, 1 mM glycine in 20 mM Tris-Cl pH 7.2. Negative controls included cell-free extracts from E. coli BL21 Star both containing no expression vector and containing pET200D/TOPO without an insert.
# [7] = GloxA enzyme assay with crude or partially purified extracts, HPLC after tosyl chloride derivatization; format: biochemical; details: for Glyphosate Removal: partially purified GloxA
# [8] = as above; format: biochemical
# Protocol: (§2) Detection of glyphosate and AMPA by HPLC analysis was performed using a modified version of the method of Tomita et al. (1991) (Column: C18 4.6 uM, 5 Å column. Mobile Phase: 0.2MK2HPO4, 15% acetonitrile). Analytes were derivatized with tosyl chloride and detected at a wavelength of 240 nm. One ml of reaction supernatant was mixed with 0.5 mL 0.4MNaHPO4 pH 11.0, followed by addition of 200 μL tosyl chloride solution (10 mgmL^−1 p-toluene sulfonylchloride [Sigma] in acetonitrile). After incubation at 50° C. for 5 minutes, 20 μL of filtered reaction product was injected onto the HPLC for analysis.
# as §1
# [9] = Resting cell biocatalytic assay of cells expressing recombinant GloxA; format: cell-based, E. coli
# Protocol: as §2
# The glyphosate-degrading protein was designated GloxA, and sub-cloning of gloxA into an expression vector and assaying for glyphosate-degrading activity confirmed cells expressing recombinant GloxA were able to degrade glyphosate, with resting cell biocatalytic assays having glyphosate-degrading activity of 300 μmol min^−1 mg wet cell mass^−1, and crude enzyme extracts having an activity of 841 μmolmin^−1mg total protein (Table 2). Of importance is that glycine was not detected as a product at this stage of the analysis of GloxA, and is presumed to have been rapidly metabolized by other enzymes contained within the E. coli resting cells and crude enzyme extract preparation.
# [10] = Side-by-side assay of GloxA and synthetic GOX extracts, iminodiacetic acid; format: biochemical; details: extracts assayed side-by-side, FIG. 4
# Protocol: (§3) Crude enzyme extracts from E. coli cells were prepared as follows. Cells were harvested and the cell pellets resuspended in 1 mL lysis buffer (25 mM Tris-Cl pH 7.5 with 1 mgml^−1 lysosyme) and lysed by sonication on ice (Branson sonifier, 60% duty cycle, 30 seconds on, 30 seconds off for ten repeats). The soluble fraction was collected by centrifugation at 5000 g for 5 minutes and the protein content measured using Biorad protein dye-binding assay (BIORAD). Partially purified extracts were prepared by purification of the S-tagged or HIS-tagged GloxA protein from soluble CFE using S-protein agarose (Novagen) the Talon HIS-tag Purification System (BD Biosciences), according to manufacturer's instructions. […] After the required reaction time, reactions were derivatized with tosyl chloride and analysed by HPLC as described above. […]
# (§4) For the purposes of direct comparison between the enzymes, a synthetic construct was made encoding the GOX gene based on SEQ ID NO:17 from U.S. Pat. No. 5,776,760. […] Soluble protein expression of GOX was optimized under varying temperature and IPTG conditions, and GOX protein expression detected by Coomasie-stained SDS-PAGE analysis and GOX enzymatic activity assayed as described above for GloxA, with HPLC analysis of activity to detect the removal of glyphosate and production of AMPA according to analytical methods above.
# [11] = Side-by-side assay of GloxA and synthetic GOX extracts, glyphosate; format: biochemical; details: extracts assayed side-by-side, FIG. 4
# Protocol: as §3, §4
# [12] = Apparent kinetic parameters of GloxA, glyphosate as substrate; format: biochemical; details: herbicide glyphosate
# Protocol: as §1, with “For determination of apparent kinetic parameters, substrate concentrations were varied over a suitable range, and the data fitted to a sum of exponential equations using Kaleidagraph (Synergy Software) or Hyper 1.1 (J. S. Easterby).” left out
molecule,measurement,setting,value
"NCP(=O)(O)O [AMPA, aminomethylphosphonic acid]","Removal of substrate, Specific Activity",[1],602 μmolmin^−1 mg^−1
same,"Removal of substrate, Relative Activity",[1],71%
"O=C(O)CNCP(=O)(O)O [glyphosate, N-(phosphonomethyl)glycine]","Removal of substrate, Specific Activity",[1],841 μmolmin^−1 mg^−1
same,"Removal of substrate, Relative Activity",[1],100%
O=C(O)CNCC(=O)O [iminodiacetic acid],"Removal of substrate, Specific Activity",[1],5013 μmolmin^−1 mg^−1
same,"Removal of substrate, Relative Activity",[1],598%
B1,Kcat,[2],0.667 s⁻¹
same,Km,[2],25000 to 28000 µM
same,specific activity,[3],15 nmolmin^−mg^−1
B2,tolerance to glyphosate (Tolerance Score),[4],confers tolerance
same,Kcat,[5],158.9 s⁻¹
same,Km,[5],1200 µM
same,Partially Purified Activity [glyphosate degradation],[6],841 µmol/min/mg
same,"Specific Activity, Production of glycine",[7]; PPE + FAD − Mg^2+,413 μmolmin^−1 mg^−1 protein
same,"Specific Activity, Removal of glyphosate",[7]; PPE + FAD − Mg^2+,838 μmolmin^−1 mg^−1 protein
same,"Specific Activity, Production of glycine",[7]; PPE − FAD + Mg^2+,562 μmolmin^−1 mg^−1 protein
same,"Specific Activity, Removal of glyphosate",[7]; PPE − FAD + Mg^2+,1450 μmolmin^−1 mg^−1 protein
same,Glyphosate Removal,[7]; Co^2+,1076 µmol/min/mg
same,Glyphosate Removal,[7]; No FAD,520 µmol/min/mg
same,Glyphosate Removal,[7]; No Metals (+EDTA),432 µmol/min/mg
same,Glyphosate Removal,[7]; Zn^2+,624 µmol/min/mg
same,"Specific Activity, Removal of glyphosate","[8]; Crude enzyme extract, approximate value",841 μmolmin^−1 mg^−1 protein
same,glycine as a product,[8]; E. coli resting cells and crude enzyme extract preparation,not detected
same,"Specific Activity, Production of glycine",[8]; PPE + FAD + Mg^2+,548 μmolmin^−1 mg^−1 protein
same,production of AMPA from glyphosate,[8]; crude extracts and partially purified GloxA,no production
same,Glyphosate Removal,"[8]; partially purified GloxA, Std (Mg^2+)",856 µmol/min/mg
same,"Specific Activity, Removal of glyphosate","[8]; partially purified enzyme extract, PPE + FAD + Mg^2+",1590 μmolmin^−1 mg^−1 protein
same,"Catalytic Activity, Removal of glyphosate",[9],300 μmolmin^−1 mg^−1 wet cell mass
same,specific activity towards iminodiacetic acid compared with GOX,[10],0.9 times less
same,specific activity towards glyphosate compared with GOX,[11],almost two fold higher
same,Kcat,[12],179.97 s⁻¹
same,Km,[12],56 µM

# — patent US20100199363A1, “ENZYMES FOR DEGRADING HERBICIDES” (priority 2006, published 2010)
